From US20220040297A1 (Chugai, published 2022)

molecular target: T1, CD3ε homodimer protein (human, UniProt P07766 23-126, limits assumed, sulfo-tag or biotin label in some ECL assays); test: SPR, CD3ε homodimer on chip;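 also: biacore SPR with antibody variants flowed as analyte over amine-coupled CD3ε homodimer on a CM chip, bound amount of each single-residue H chain variant over that of parent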
T1 construct: also called human CD3ε homodimer protein; CD3 (CD3ε)
T1 sequence (P07766 23-126 limits assumed): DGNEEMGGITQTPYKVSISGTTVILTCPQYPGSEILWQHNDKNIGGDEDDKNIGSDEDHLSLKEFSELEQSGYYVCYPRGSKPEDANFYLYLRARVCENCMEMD

Row | Binder | ratio of amounts bound vs CE115HA000
1 | CE115HA000 H96Y (antibody, name in Kabat numbering, V domains shown) VH: QVQLVESGGGVVQPGRSLRLSCAASGFTFSNAWMHWVRQAPGKGLEWVAQIKAKSNNYATYYAESVKGRFTISRDDSKNSLYLQMNSLKTEDTAVYYCRYVYYGAYYGVDAWGQGTTVTVSS VL: DIVMTQSPLSLPVTPGEPASISCRSSQSLVHSNRNTYLHWYQQKPGQAPRLLIYKVSNRFSGVPDRFSGSGSGTDFTLKISRVEAEDVGVYYCGQGTQVPYTFGQGTKLEIK | 0.17
2 | CE115HA000 K52E (antibody, name in Kabat numbering, V domains shown) VH: QVQLVESGGGVVQPGRSLRLSCAASGFTFSNAWMHWVRQAPGKGLEWVAQIEAKSNNYATYYAESVKGRFTISRDDSKNSLYLQMNSLKTEDTAVYYCRYVHYGAYYGVDAWGQGTTVTVSS VL: DIVMTQSPLSLPVTPGEPASISCRSSQSLVHSNRNTYLHWYQQKPGQAPRLLIYKVSNRFSGVPDRFSGSGSGTDFTLKISRVEAEDVGVYYCGQGTQVPYTFGQGTKLEIK | 0.26
3 | CE115HA000 K52F (antibody, name in Kabat numbering, V domains shown) VH: QVQLVESGGGVVQPGRSLRLSCAASGFTFSNAWMHWVRQAPGKGLEWVAQIFAKSNNYATYYAESVKGRFTISRDDSKNSLYLQMNSLKTEDTAVYYCRYVHYGAYYGVDAWGQGTTVTVSS VL: DIVMTQSPLSLPVTPGEPASISCRSSQSLVHSNRNTYLHWYQQKPGQAPRLLIYKVSNRFSGVPDRFSGSGSGTDFTLKISRVEAEDVGVYYCGQGTQVPYTFGQGTKLEIK | 0.17
4 | CE115HA000 K52D (antibody, name in Kabat numbering, V domains shown) VH: QVQLVESGGGVVQPGRSLRLSCAASGFTFSNAWMHWVRQAPGKGLEWVAQIDAKSNNYATYYAESVKGRFTISRDDSKNSLYLQMNSLKTEDTAVYYCRYVHYGAYYGVDAWGQGTTVTVSS VL: DIVMTQSPLSLPVTPGEPASISCRSSQSLVHSNRNTYLHWYQQKPGQAPRLLIYKVSNRFSGVPDRFSGSGSGTDFTLKISRVEAEDVGVYYCGQGTQVPYTFGQGTKLEIK | 0.25
5 | CE115HA000 K43E (antibody, name in Kabat numbering, V domains shown) VH: QVQLVESGGGVVQPGRSLRLSCAASGFTFSNAWMHWVRQAPGEGLEWVAQIKAKSNNYATYYAESVKGRFTISRDDSKNSLYLQMNSLKTEDTAVYYCRYVHYGAYYGVDAWGQGTTVTVSS VL: DIVMTQSPLSLPVTPGEPASISCRSSQSLVHSNRNTYLHWYQQKPGQAPRLLIYKVSNRFSGVPDRFSGSGSGTDFTLKISRVEAEDVGVYYCGQGTQVPYTFGQGTKLEIK | 0.9
6 | CE115HA000 K43Q (antibody, name in Kabat numbering, V domains shown) VH: QVQLVESGGGVVQPGRSLRLSCAASGFTFSNAWMHWVRQAPGQGLEWVAQIKAKSNNYATYYAESVKGRFTISRDDSKNSLYLQMNSLKTEDTAVYYCRYVHYGAYYGVDAWGQGTTVTVSS VL: DIVMTQSPLSLPVTPGEPASISCRSSQSLVHSNRNTYLHWYQQKPGQAPRLLIYKVSNRFSGVPDRFSGSGSGTDFTLKISRVEAEDVGVYYCGQGTQVPYTFGQGTKLEIK | 0.99
7 | CE115HA000 K52W (antibody, name in Kabat numbering, V domains shown) VH: QVQLVESGGGVVQPGRSLRLSCAASGFTFSNAWMHWVRQAPGKGLEWVAQIWAKSNNYATYYAESVKGRFTISRDDSKNSLYLQMNSLKTEDTAVYYCRYVHYGAYYGVDAWGQGTTVTVSS VL: DIVMTQSPLSLPVTPGEPASISCRSSQSLVHSNRNTYLHWYQQKPGQAPRLLIYKVSNRFSGVPDRFSGSGSGTDFTLKISRVEAEDVGVYYCGQGTQVPYTFGQGTKLEIK | 0.22
8 | CE115HA000 K52H (antibody, name in Kabat numbering, V domains shown) VH: QVQLVESGGGVVQPGRSLRLSCAASGFTFSNAWMHWVRQAPGKGLEWVAQIHAKSNNYATYYAESVKGRFTISRDDSKNSLYLQMNSLKTEDTAVYYCRYVHYGAYYGVDAWGQGTTVTVSS VL: DIVMTQSPLSLPVTPGEPASISCRSSQSLVHSNRNTYLHWYQQKPGQAPRLLIYKVSNRFSGVPDRFSGSGSGTDFTLKISRVEAEDVGVYYCGQGTQVPYTFGQGTKLEIK | 0.22
9 | CE115HA000 K52I (antibody, name in Kabat numbering, V domains shown) VH: QVQLVESGGGVVQPGRSLRLSCAASGFTFSNAWMHWVRQAPGKGLEWVAQIIAKSNNYATYYAESVKGRFTISRDDSKNSLYLQMNSLKTEDTAVYYCRYVHYGAYYGVDAWGQGTTVTVSS VL: DIVMTQSPLSLPVTPGEPASISCRSSQSLVHSNRNTYLHWYQQKPGQAPRLLIYKVSNRFSGVPDRFSGSGSGTDFTLKISRVEAEDVGVYYCGQGTQVPYTFGQGTKLEIK | 0.33
10 | CE115HA000 K52bQ (antibody, name in Kabat numbering, V domains shown) VH: QVQLVESGGGVVQPGRSLRLSCAASGFTFSNAWMHWVRQAPGKGLEWVAQIKAQSNNYATYYAESVKGRFTISRDDSKNSLYLQMNSLKTEDTAVYYCRYVHYGAYYGVDAWGQGTTVTVSS VL: DIVMTQSPLSLPVTPGEPASISCRSSQSLVHSNRNTYLHWYQQKPGQAPRLLIYKVSNRFSGVPDRFSGSGSGTDFTLKISRVEAEDVGVYYCGQGTQVPYTFGQGTKLEIK | 0.6
11 | CE115HA000 K52N (antibody, name in Kabat numbering, V domains shown) VH: QVQLVESGGGVVQPGRSLRLSCAASGFTFSNAWMHWVRQAPGKGLEWVAQINAKSNNYATYYAESVKGRFTISRDDSKNSLYLQMNSLKTEDTAVYYCRYVHYGAYYGVDAWGQGTTVTVSS VL: DIVMTQSPLSLPVTPGEPASISCRSSQSLVHSNRNTYLHWYQQKPGQAPRLLIYKVSNRFSGVPDRFSGSGSGTDFTLKISRVEAEDVGVYYCGQGTQVPYTFGQGTKLEIK | 0.34
12 | CE115HA000 K52R (antibody, name in Kabat numbering, V domains shown) VH: QVQLVESGGGVVQPGRSLRLSCAASGFTFSNAWMHWVRQAPGKGLEWVAQIRAKSNNYATYYAESVKGRFTISRDDSKNSLYLQMNSLKTEDTAVYYCRYVHYGAYYGVDAWGQGTTVTVSS VL: DIVMTQSPLSLPVTPGEPASISCRSSQSLVHSNRNTYLHWYQQKPGQAPRLLIYKVSNRFSGVPDRFSGSGSGTDFTLKISRVEAEDVGVYYCGQGTQVPYTFGQGTKLEIK | 0.92
13 | CE115HA000 K52bN (antibody, name in Kabat numbering, V domains shown) VH: QVQLVESGGGVVQPGRSLRLSCAASGFTFSNAWMHWVRQAPGKGLEWVAQIKANSNNYATYYAESVKGRFTISRDDSKNSLYLQMNSLKTEDTAVYYCRYVHYGAYYGVDAWGQGTTVTVSS VL: DIVMTQSPLSLPVTPGEPASISCRSSQSLVHSNRNTYLHWYQQKPGQAPRLLIYKVSNRFSGVPDRFSGSGSGTDFTLKISRVEAEDVGVYYCGQGTQVPYTFGQGTKLEIK | 0.27
14 | CE115HA000 K52bD (antibody, name in Kabat numbering, V domains shown) VH: QVQLVESGGGVVQPGRSLRLSCAASGFTFSNAWMHWVRQAPGKGLEWVAQIKADSNNYATYYAESVKGRFTISRDDSKNSLYLQMNSLKTEDTAVYYCRYVHYGAYYGVDAWGQGTTVTVSS VL: DIVMTQSPLSLPVTPGEPASISCRSSQSLVHSNRNTYLHWYQQKPGQAPRLLIYKVSNRFSGVPDRFSGSGSGTDFTLKISRVEAEDVGVYYCGQGTQVPYTFGQGTKLEIK | 0.27
15 | CE115HA000 K52S (antibody, name in Kabat numbering, V domains shown) VH: QVQLVESGGGVVQPGRSLRLSCAASGFTFSNAWMHWVRQAPGKGLEWVAQISAKSNNYATYYAESVKGRFTISRDDSKNSLYLQMNSLKTEDTAVYYCRYVHYGAYYGVDAWGQGTTVTVSS VL: DIVMTQSPLSLPVTPGEPASISCRSSQSLVHSNRNTYLHWYQQKPGQAPRLLIYKVSNRFSGVPDRFSGSGSGTDFTLKISRVEAEDVGVYYCGQGTQVPYTFGQGTKLEIK | 0.28
16 | CE115HA000 K52bL (antibody, name in Kabat numbering, V domains shown) VH: QVQLVESGGGVVQPGRSLRLSCAASGFTFSNAWMHWVRQAPGKGLEWVAQIKALSNNYATYYAESVKGRFTISRDDSKNSLYLQMNSLKTEDTAVYYCRYVHYGAYYGVDAWGQGTTVTVSS VL: DIVMTQSPLSLPVTPGEPASISCRSSQSLVHSNRNTYLHWYQQKPGQAPRLLIYKVSNRFSGVPDRFSGSGSGTDFTLKISRVEAEDVGVYYCGQGTQVPYTFGQGTKLEIK | 0.61
17 | CE115HA000 I51D (antibody, name in Kabat numbering, V domains shown) VH: QVQLVESGGGVVQPGRSLRLSCAASGFTFSNAWMHWVRQAPGKGLEWVAQDKAKSNNYATYYAESVKGRFTISRDDSKNSLYLQMNSLKTEDTAVYYCRYVHYGAYYGVDAWGQGTTVTVSS VL: DIVMTQSPLSLPVTPGEPASISCRSSQSLVHSNRNTYLHWYQQKPGQAPRLLIYKVSNRFSGVPDRFSGSGSGTDFTLKISRVEAEDVGVYYCGQGTQVPYTFGQGTKLEIK | 0.29
18 | CE115HA000 I51E (antibody, name in Kabat numbering, V domains shown) VH: QVQLVESGGGVVQPGRSLRLSCAASGFTFSNAWMHWVRQAPGKGLEWVAQEKAKSNNYATYYAESVKGRFTISRDDSKNSLYLQMNSLKTEDTAVYYCRYVHYGAYYGVDAWGQGTTVTVSS VL: DIVMTQSPLSLPVTPGEPASISCRSSQSLVHSNRNTYLHWYQQKPGQAPRLLIYKVSNRFSGVPDRFSGSGSGTDFTLKISRVEAEDVGVYYCGQGTQVPYTFGQGTKLEIK | 0.55
19 | CE115HA000 K52Y (antibody, name in Kabat numbering, V domains shown) VH: QVQLVESGGGVVQPGRSLRLSCAASGFTFSNAWMHWVRQAPGKGLEWVAQIYAKSNNYATYYAESVKGRFTISRDDSKNSLYLQMNSLKTEDTAVYYCRYVHYGAYYGVDAWGQGTTVTVSS VL: DIVMTQSPLSLPVTPGEPASISCRSSQSLVHSNRNTYLHWYQQKPGQAPRLLIYKVSNRFSGVPDRFSGSGSGTDFTLKISRVEAEDVGVYYCGQGTQVPYTFGQGTKLEIK | 0.18
20 | CE115HA000 K52bA (antibody, name in Kabat numbering, V domains shown) VH: QVQLVESGGGVVQPGRSLRLSCAASGFTFSNAWMHWVRQAPGKGLEWVAQIKAASNNYATYYAESVKGRFTISRDDSKNSLYLQMNSLKTEDTAVYYCRYVHYGAYYGVDAWGQGTTVTVSS VL: DIVMTQSPLSLPVTPGEPASISCRSSQSLVHSNRNTYLHWYQQKPGQAPRLLIYKVSNRFSGVPDRFSGSGSGTDFTLKISRVEAEDVGVYYCGQGTQVPYTFGQGTKLEIK | 0.67
